Test results reported in doi:10.1101/2022.12.06.519258 (bioRxiv, 2022).

Columns and labels:
[1] = biological target: human KRAS^G12V (residues 1-169) (human) (UniProt P01116); experiment: stopped-flow fluorescence kinetics
[2] = biological target: human SOS1 (residues 564-1049), SOS1^cat (Homo sapiens, UniProt Q07889, labelled with Alexa488 for flow cytometry (SOS1-488)); experiment: BLI

fold decrease of KD1 with Nb22 against SOS1 alone [1] [fold] | fold increase of k1 (kon) with excess Nb22 against SOS1 alone [1] [fold] | kon [1] [M⁻¹ s⁻¹] | ratio of k-1 (koff) with Nb14 to SOS1 alone [1] [fold] | Kd [2] [nM] | Molecule
3.1 | 4 | 4.2e+06 | 0.3 | – | human SOS1 (residues 564-1049), SOS1^cat (from UniProt Q07889 564-1049) (domain or fragment)
– | – | – | – | 70 ± 10 | Nanobody Nb77 (VHH) VHH: QVQLVESGGGLVQPGGSLRLSCAASRSISSINIMGWYRQAPGKERESVASHTRDGSTDYADSVKGRFTISRDNAKNTVYLQMNSLKPEDTAVYYCTTLTGFPRIRSWGQGTQVTVSS
